Experimental data: the DeepSol protein solubility set

Assay: soluble on expression in E. coli; label from the status in PepcDB or PDB records

| Sequence | soluble on expression in E. coli |
| --- | --- |
| KLEEEPYLKGTVNTVIYHNDTNLYTVLKVKVTETSEAIEDKAVSVTGYFPALQEEETYTFYGKIVTHPKFGLQFQAEHFKKEIPTTKEGIIQYLSSDLFEGIGKKTAEEIVKKLGDSAINKILADASVLYDVPRLSKKKADTLAGALQRHQGLEQIMISLNQFGFGPQLSMKIYQAYESETLEKIQENPYQLVKDVEGIGFGKADELGSRMGLSGNHPERVKAAILYTLETTCLSEGHTYIETEQLIIDTQSLLNQSAREGQRITEMDAANAIIALGENKDIVIEDGRCYFPSLFYAEQNVAKRVKHIASQTEYENQFPESEFLLALGELEERMDVQYAPSQKEAIQKALSSPMLLLTGGPGTGKTTVIRGIVELYGELHGVSLDPSAYKKDEAFPIVLAAPTGRAAKRMSESTGLPAVTIHRLLGWNGAEGFTHTEDQPIEGKLLIIDEASMLDIWLANHLFKAIPDHIQIIIVGDEDQLPSVGPGQVLRDLLASQVIPTVRLTDIYRQAEGSSIVELAHQMKNGLLPNNLTAPTKDRSFIRCGGSQIKEVVEKVVANALKKGYTAKDIQVLAPMYRGKAGINELNVMLQDILNPPKEKRRELKFGDVVYRTGDKILQLVNQPENNVFNGDIGEITSIFYAKENTEKEDMAVVSFDGNEMTFTKKDFNQFTHAYCCSIHKSQGSEFPIVVLPVVKGYYRMLRRNLLYTAITRAKKFLILCGEEEALEWGVKNNDATVRQTSLKNRLSVQVEEMDAELEALQKELPFSVHDANIGMEGITPFDFM | not soluble |
| MSLYGKRLVVFAPLYVSNYCVNNCTYCGYKHCNDELKRKKLNKEQLIEEVKVLESLGHKRIALEAGEDPVNAPLDYILDCIKSIYSIKFDNGSIRRINVNIAATSVEDYKRLKDAEIGTYILFQETYHKPTYERLHVSGPKHNYNYHTTAMHRAREAGIDDIGMGVLYGLYDYKYETLAMLMHAMDLEETTGVGPHTLSVPRIRPAENVSLENYPYLVDDEDFKKIVAILRLAVPYAGLILSTREEPGLRDEIIALGVSQVSTGSCTGVGGYSESYIDPEEKPQFEVGDHRSPVEMIESLMEAGYIPSYCTACYREGRTGERFMDIVKSGELYKICEANALITLKEFIDDYGTDRTREIGDKLIKKSIDEIDNESFRKSVEEKINKISNGTRDLRFEGHHHHHH | not soluble |
| MSLTLTLTGTGGAQGVPAWGCECAACARARRSPQYRRQPCSGVVKFNDAITLIDAGLHDLADRWSPGSFQQFLLTHYHMDHVQGLFPLRWGVGDPIPVYGPPDEQGCDDLFKHPGLLDFSHTVEPFVVFDLQGLQVTPLPLNHSKLTFGYLLETAHSRVAWLSDTAGLPEKTLKFLRNNQPQVMVMDCSHPPRADAPRNHCDLNTVLALNQVIRSPRVILTHISHQFDAWLMENALPSGFEVGFDGMEIGVALEHHHHHH | soluble |
| GPGSMGRQKSRNLWNDGEGTKSVCRPQQVTVAKGWRVTPDLLPAKPLAPRRRKYAPIRPNNRDAVAIPLGGQSYNPLDEEHQEALAKAVRQLSKKKLKDEKFVKMMTMGRDKKYTGNLSADKTWEEEVQETEPATAKTPKKKRTKTAPASTGASSSAPSSAPSPVTHNGNKAKHEKVAAAPAAVAKNGKTAKKQKKKTKKATAEEAKRAMTHRRHPKRGVVAKETDELDVLLAAHKATACKREVARQKRRAAKKANLAIKHYGRHYHTPLVLDVTPSDKLVGSLRHLSGGYVHPALERMKSLEERNLVPARMRHTYNKRKVLKPKGEVRVKREEFGVMPMTGF | soluble |
| SANPKLLGLELSEAEAIGADSARFEELLLQASKELQQAQTTRPESTQIQPQPGFCIKTNSSEGKVFINICHSPSIPPPADVTEEELLQMLEEDQAGFRIPMSLGEPHAELDAKGQGCTAYDVAVNSDFYRRMQNSDFLRELVITIAREGLEDKYNLQLNPEWRMMKNRPFMGSISQQNIRSEQRPRIQELGDLYTPAPGRAESGPEKPHLNLWLEAPDLLLAEIDLPKLDGALGLSLEIGENRLVMGGPQQLYHLDAYIPLQINSHESKAAFHRKRKQLMVAMPLLLVPS | soluble |
| MGSDKIHHHHHHAGKQNEVELVAEKQLAFPLDEQTYYLSKSMFQFEENGKEYLHFENTQKSLYDIVIFDIENQQIAKRIPLHKTGPNGLPAVFGSRPSPDSQYILVAQNNISRLSSINSQGEIIRNYNFQTPEGRFTPLSFGSYYNAPAFIKDSCIFLRQEILKPDMKKEDWPRTHMFASQDLRTGEVKWIPIFYPPIFKEEYDNIAGGYGFSYDYNYKESRLVCGFFGYDSLMVTDDLKHIRWYNAKSRYLKSMKPKLGNSMEGINAIIKLNENPRYWHIMYDKYRNVYYRFAEMPYKLAPNESPYETPKGKEFSVIVLNADFEIIGETKFPGKKYFYKMSFVGREGLYISENNLENPQFDENKLVFTCFKIKNASPNK | not soluble |
